Laboratory results reported in article PMC4359373, “Mechanistic insight into the conserved allosteric regulation of periplasmic proteolysis by the signaling molecule cyclic-di-GMP” (eLife, 2014).

Biological target: L. pneumophila CdgS9 periplasmic output domain (CdgS9^Output, residues 22-152) (L. pneumophila)
Test: […]; 25 mM Tris-HCl pH 7.4, 100 mM NaCl, 25°C; […]

Row | Substance | stoichiometry N | stoichiometry N (CdgS9^Output chains per LapG (2:1))
1 | L. pneumophila CdgS9 periplasmic output domain (CdgS9^Output, residues 22-152) (domain or fragment) | 2 | 
2 | L. pneumophila LapG (enzyme) |  | 2
